According to patent US20260115256A1 (HANGZHOU SCIWIND BIOSCIENCES, published 2026):
*1 amine or outer side, *2 acyl side, *3 side chain or, on linkers, in order; H or OH if unused. Bridges are numbered along the chain shown (N, C = ends). Primed or numbered codes have the meaning given here. Where no end group is shown, it is not given here. Side-chain parts run from the residue outwards. [ ]: non-standard residue; d: D form. The star is where a group is joined. C20 diacid = O=C(O)CCCCCCCCCCCCCCCCCCC(=O)*; γGlu = O=C(O)[C@H](CCC(=O)[*:2])N[*:1]; βAsp = O=C(O)[C@H](CC(=O)[*:2])N[*:1]; Hyp = O=C(O)[C@@H]1C[C@@H](O)CN1; Aad = N[C@@H](CCCC(=O)O)C(=O)O; αMeP = C[C@@]1(C(=O)O)CCCN1; Orn = NCCC[C@H](N)C(=O)O; Aze = O=C(O)[C@@H]1CCN1; Dab = NCC[C@H](N)C(=O)O; Inp′ = not defined here; Pip′ = not defined here; Dap = NC[C@H](N)C(=O)O; AEEA = NCCOCCOCC(=O)O

T1: human amylin receptor (AMY3) on CHO-K1/Ga15/AMY3 cells (human, UniProt P30988 25-474; O60896 24-148)
T1 sequence (looked up) 1: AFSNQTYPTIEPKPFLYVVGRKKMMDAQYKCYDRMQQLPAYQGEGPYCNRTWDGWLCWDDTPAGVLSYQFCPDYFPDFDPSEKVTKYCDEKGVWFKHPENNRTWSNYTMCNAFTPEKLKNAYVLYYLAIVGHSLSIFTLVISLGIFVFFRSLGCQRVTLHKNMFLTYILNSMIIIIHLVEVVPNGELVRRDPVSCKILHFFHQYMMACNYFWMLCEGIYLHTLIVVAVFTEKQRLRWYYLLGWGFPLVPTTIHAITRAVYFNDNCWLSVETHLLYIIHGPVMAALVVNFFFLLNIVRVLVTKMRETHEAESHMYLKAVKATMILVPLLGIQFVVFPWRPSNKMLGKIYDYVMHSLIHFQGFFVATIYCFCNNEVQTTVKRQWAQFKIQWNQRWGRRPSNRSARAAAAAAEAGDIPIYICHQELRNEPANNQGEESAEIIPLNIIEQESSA
T1 sequence (looked up) 2: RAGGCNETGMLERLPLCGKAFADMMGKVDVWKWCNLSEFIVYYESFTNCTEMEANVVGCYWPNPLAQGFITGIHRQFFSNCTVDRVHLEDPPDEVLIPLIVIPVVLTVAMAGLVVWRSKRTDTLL


Biological target: T1, human amylin receptor (AMY3) on …
Assay: cell-based or functional assay

EC50, CRE-luciferase assay [nM] | Binder
0.032 | K([γGlu-C20 diacid])CNTATCATQRLADFLRHSSNNFGPILPPTNVGSNT[Hyp]-NH2 (disulfide 2-7 (inferred)) [PD068]
0.034 | {C20 diacid-γGlu}-KCNTATCATQRLADFLRHSSNNFGPILPPTNVGSNT[Hyp]-NH2 (disulfide 2-7 (inferred)) [PD067]
0.119 | RCNTATCATQRLAEFLRHSSNK([AEEA-AEEA-γGlu-C20 diacid])LGPILPPTNVGSNTP-NH2 (disulfide 2-7 (inferred)) [PD002]
0.064 | {C20 diacid-βAsp-AEEA-AEEA}-KCNTATCATQRLADFLRHSSNNLKPILPPTNVGSNTP-NH2 (disulfide 2-7 (inferred)) [PD196]
0.101 | RCNTATCATQRLAEFLRHSSNNLK([γGlu-C20 diacid])PILPPTNVGSNT[αMeP]-NH2 (disulfide 2-7 (inferred)) [PD063]
0.049 | CNTATCATQRLADFLRHSSNNLK([γGlu-C20 diacid])PILPPTNVGSNTX-NH2 (disulfide 1-6 (inferred); not fully specified (residue 36); printed as CNTATCATQRLADFLRHSSNNLKPILPPTNVGSNT-trans-Hyp-NH2) [PD054]
0.025 | {C20 diacid-βAsp-AEEA-AEEA}-KCNTATCATQRLADFLRHSSNNLKPILPPTNVGSNTP-NH2 (disulfide 2-7 (inferred)) [PD195]
0.246 | RCNTATCATQRLADFLRHSSNNLK([γGlu-C20 diacid])PILPPTNVGSNT[Aze]-NH2 (disulfide 2-7 (inferred)) [PD060]
0.939 | RCNTATCATQRLAEFLRHSSNNLK([γGlu-C20 diacid])PILPPTNVGSNT[Aze]-NH2 (disulfide 2-7 (inferred)) [PD059]
0.909 | RCNTATCATQRLAEFLRHSSNNLK([γGlu-C20 diacid])PILPPTNVGSNT[cis‑Hyp]-NH2 (disulfide 2-7 (inferred)) [PD055]
0.044 | K([γGlu-C20 diacid])CNTATCATQRLAEFLRHSSNNFGPILPPTNVGSNTP-NH2 (ends and bridges not checked) [PD066]
0.319 | RCNTATCATQRLADFLRHSSNNLK([γGlu-C20 diacid])PILPPTNVGSNT[Pip′]-NH2 (disulfide 2-7 (inferred)) [PD058]
0.14 | RCNTATCATQRLAEFLRHSSNNK([AEEA-AEEA-γGlu-C20 diacid])GPILPPTNVGSNTP-NH2 (disulfide 2-7 (inferred)) [PD003]
0.029 | {C20 diacid-γGlu}-KGGGGRCNTATCATQRLADFLRHSSNNLRPILPPTNVGSNTP-NH2 (disulfide 7-12 (inferred)) [PD198]
0.039 | {C20 diacid-γGlu}-KCNTATCATQRLADFLRHSSNNLGPILPPTNVGSNT[Hyp]-NH2 (disulfide 2-7 (inferred)) [PD069]
0.075 | CNTATCATQRLAEFLRHSSNNLK([γGlu-C20 diacid])PILPPTNVGSNTX-NH2 (disulfide 1-6 (inferred); not fully specified (residue 36); printed as CNTATCATQRLAEFLRHSSNNLKPILPPTNVGSNT-trans-Hyp-NH2) [PD053]
0.047 | RCNTATCATQRLADFLRHSSNNLK([γGlu-C20 diacid])PILPPTNVGSNTP-NH2 (disulfide 2-7 (inferred)) [PD048]
0.074 | {C20 diacid-AEEA-AEEA}-DKCNTATCATQRLADFLRHSSNNLKPILPPTNVGSNTP-NH2 (disulfide 3-8 (inferred)) [PD194]

EC50, CRE-luciferase assay [nM] | Binder
0.073 | RCNTATCATQRLAEFLRHSSNNLK([γGlu-C20 diacid])PILPPTNVGSNTP-NH2 (disulfide 2-7 (inferred)) [PD047]
0.038 | K([γGlu-C20 diacid])CNTATCATQRLADFLRHSSNNLGPILPPTNVGSNT[Hyp]-NH2 (disulfide 2-7 (inferred)) [PD070]
0.215 | CNTATCATQRLAEFLRHSSNNLK([γGlu-C20 diacid])PILPPTNVGSNTP-NH2 (disulfide 1-6 (inferred)) [PD049]
1.68 | RCNTATCATQRLAEFL[Orn]HSSNNLK([γGlu-C20 diacid])PILPPTNVGSNTP-NH2 (disulfide 2-7 (inferred)) [PD046]
0.815 | RCNTATCATQRLAEFLRHSSNNLK([γGlu-C20 diacid])PILPPTNVGSNT[3‑Am‑Pro]-NH2 (disulfide 2-7 (inferred)) [PD061]
0.087 | {C20 diacid-AEEA-AEEA-Inp′}-KCNTATCATQRLADFLRHSSNNLKPILPPTNVGSNTP-NH2 (disulfide 2-7 (inferred)) [PD192]
0.586 | RCNTATCATQRLADFLRHSSNNLK([γGlu-C20 diacid])PILPPTNVGSNT[cis‑Hyp]-NH2 (disulfide 2-7 (inferred)) [PD056]
0.098 | CNTATCATQRLADFLRHSSNNLK([γGlu-C20 diacid])PILPPTNVGSNTP-NH2 (disulfide 1-6 (inferred)) [PD050]
2.62 | RCNTATCATQRLA[Dab]FLRHSSNNLK([γGlu-C20 diacid])PILPPTNVGSNTP-NH2 (disulfide 2-7 (inferred)) [PD044]
0.102 | RCNTATCATQRLAEFLRHSSNNLK([AEEA-AEEA-γGlu-C20 diacid])PILPPTNVGSNTP-NH2 (disulfide 2-7 (inferred)) [PD004]
0.055 | RCNTATCATQRLADFLRHSSNNLK([γGlu-C20 diacid])PILPPTNVGSNT[αMeP]-NH2 (disulfide 2-7 (inferred)) [PD064]
0.364 | RCNTATCATQRLA[Dap]FLRHSSNNLK([γGlu-C20 diacid])PILPPTNVGSNTP-NH2 (disulfide 2-7 (inferred)) [PD045]
0.374 | RCNTATCATQRLADFLRHSSNNLK([γGlu-C20 diacid])PILPPTNVGSNT[3‑Am‑Pro]-NH2 (disulfide 2-7 (inferred)) [PD062]
1.13 | RCNTATCATQRLA[Aad]FLRHSSNNLK([γGlu-C20 diacid])PILPPTNVGSNTP-NH2 (disulfide 2-7 (inferred)) [PD043]
0.025 | {C20 diacid-γGlu}-RCNTATCATQRLADFLRHSSNNLRPILPPTNVGSNTP-NH2 (disulfide 2-7 (inferred)) [PD197]
0.793 | RCNTATCATQRLAEFLRHSSNNLK([γGlu-C20 diacid])PILPPTNVGSNT[Pip′]-NH2 (disulfide 2-7 (inferred)) [PD057]
0.074 | {C20 diacid}-D[AEEA][AEEA]KCNTATCATQRLADFLRHSSNNLKPILPPTNVGSNTP-NH2 (disulfide 5-10 (inferred)) [PD193]
